# According to the Human Domainome abundance scans (Beltran et al. 2025):
# ± gives the uncertainty stated by the source.
# B1: Far upstream element-binding protein 1, residues 98 to 169; numbered along this chain, Q96AE4 (parent)
# chain: RSVMTEEYKVPDGMVGFIIGRGGEQISRIQQESGCKIQIAPDSGGLPERSCMLTGTPESVQSAKRLLDQIVE
# Variants of: B1
# Experiment: abundance fitness (aPCA) (normalised: wild type 0, dead -1); higher = more abundant; growth selection in yeast, the domain comes from the species named
# Conditions: Homo sapiens
row,Variant,abundance fitness
1,RSVMTEEYKVPDGMVGFIIGRGGEQISRIQQESGCKIQIAPDSLGLPERSCMLTGTPESVQSAKRLLDQIVE,-0.05 ± 0.025
2,RSVMTEEYKVPDGMVGFIIGRGGEQISRIQQESGCKIQIAPDSCGLPERSCMLTGTPESVQSAKRLLDQIVE,-0.019 ± 0.036
3,RSVMTEEYKVPDGMVGFIIGRGGEQISRIQQESGCKIQIAPDSDGLPERSCMLTGTPESVQSAKRLLDQIVE,-0.017 ± 0.032
4,RSVMTEEYKVPDGMVGFIIGRGGEQISRIQQESGCKIQIAPDSHGLPERSCMLTGTPESVQSAKRLLDQIVE,-0.092 ± 0.035
5,RSVMTEEYKVPDGMVGFIIGRGGEQISRIQQESGCKIQIAPDSNGLPERSCMLTGTPESVQSAKRLLDQIVE,-0.024 ± 0.033
6,RSVMTEEYKVPDGMVGFIIGRGGEQISRIQQESGCKIQIAPDSAGLPERSCMLTGTPESVQSAKRLLDQIVE,-0.013 ± 0.026
7,RSVMTEEYKVPDGMVGFIIGRGGEQISRIQQESGCKIQIAPDSEGLPERSCMLTGTPESVQSAKRLLDQIVE,-0.004 ± 0.031
8,RSVMTEEYKVPDGMVGFIIGRGGEQISRIQQESGCKIQIAPDSMGLPERSCMLTGTPESVQSAKRLLDQIVE,-0.012 ± 0.033
9,RSVMTEEYKVPDGMVGFIIGRGGEQISRIQQESGCKIQIAPDSFGLPERSCMLTGTPESVQSAKRLLDQIVE,-0.107 ± 0.035
10,RSVMTEEYKVPDGMVGFIIGRGGEQISRIQQESGCKIQIAPDSIGLPERSCMLTGTPESVQSAKRLLDQIVE,-0.064 ± 0.033
11,RSVMTEEYKVPDGMVGFIIGRGGEQISRIQQESGCKIQIAPDGGGLPERSCMLTGTPESVQSAKRLLDQIVE,-0.066 ± 0.026
12,RSVMTEEYKVPDGMVGFIIGRGGEQISRIQQESGCKIQIAPDAGGLPERSCMLTGTPESVQSAKRLLDQIVE,-0.016 ± 0.03
13,RSVMTEEYKVPDGMVGFIIGRGGEQISRIQQESGCKIQIAPDTGGLPERSCMLTGTPESVQSAKRLLDQIVE,-0.037 ± 0.032
14,RSVMTEEYKVPDGMVGFIIGRGGEQISRIQQESGCKIQIAPDVGGLPERSCMLTGTPESVQSAKRLLDQIVE,-0.068 ± 0.029
15,RSVMTEEYKVPDGMVGFIIGRGGEQISRIQQESGCKIQIAPDMGGLPERSCMLTGTPESVQSAKRLLDQIVE,-0.087 ± 0.035
16,RSVMTEEYKVPDGMVGFIIGRGGEQISRIQQESGCKIQIAPDWGGLPERSCMLTGTPESVQSAKRLLDQIVE,-0.142 ± 0.037
17,RSVMTEEYKVPDGMVGFIIGRGGEQISRIQQESGCKIQIAPDLGGLPERSCMLTGTPESVQSAKRLLDQIVE,-0.098 ± 0.03
18,RSVMTEEYKVPDGMVGFIIGRGGEQISRIQQESGCKIQIAPDNGGLPERSCMLTGTPESVQSAKRLLDQIVE,-0.043 ± 0.045
19,RSVMTEEYKVPDGMVGFIIGRGGEQISRIQQESGCKIQIAPDPGGLPERSCMLTGTPESVQSAKRLLDQIVE,-0.234 ± 0.033

row,Variant,abundance fitness
1,RSVMTEEYKVPDGMVGFIIGRGGEQISRIQQESGCKIQIAPDKGGLPERSCMLTGTPESVQSAKRLLDQIVE,-0.091 ± 0.037
2,RSVMTEEYKVPDGMVGFIIGRGGEQISRIQQESGCKIQIAPDDGGLPERSCMLTGTPESVQSAKRLLDQIVE,-0.042 ± 0.047
3,RSVMTEEYKVPDGMVGFIIGRGGEQISRIQQESGCKIQIAPDIGGLPERSCMLTGTPESVQSAKRLLDQIVE,-0.024 ± 0.044
4,RSVMTEEYKVPDGMVGFIIGRGGEQISRIQQESGCKIQIAPDCGGLPERSCMLTGTPESVQSAKRLLDQIVE,-0.131 ± 0.04
5,RSVMTEEYKVPDGMVGFIIGRGGEQISRIQQESGCKIQIAPDRGGLPERSCMLTGTPESVQSAKRLLDQIVE,-0.086 ± 0.027
6,RSVMTEEYKVPDGMVGFIIGRGGEQISRIQQESGCKIQIAPDYGGLPERSCMLTGTPESVQSAKRLLDQIVE,-0.124 ± 0.043
7,RSVMTEEYKVPDGMVGFIIGRGGEQISRIQQESGCKIQIAPLSGGLPERSCMLTGTPESVQSAKRLLDQIVE,-0.095 ± 0.029
8,RSVMTEEYKVPDGMVGFIIGRGGEQISRIQQESGCKIQIAPRSGGLPERSCMLTGTPESVQSAKRLLDQIVE,-0.027 ± 0.025
9,RSVMTEEYKVPDGMVGFIIGRGGEQISRIQQESGCKIQIAPNSGGLPERSCMLTGTPESVQSAKRLLDQIVE,-0.031 ± 0.044
10,RSVMTEEYKVPDGMVGFIIGRGGEQISRIQQESGCKIQIAPYSGGLPERSCMLTGTPESVQSAKRLLDQIVE,-0.113 ± 0.045
11,RSVMTEEYKVPDGMVGFIIGRGGEQISRIQQESGCKIQIAPPSGGLPERSCMLTGTPESVQSAKRLLDQIVE,0.004 ± 0.038
12,RSVMTEEYKVPDGMVGFIIGRGGEQISRIQQESGCKIQIAPTSGGLPERSCMLTGTPESVQSAKRLLDQIVE,-0.053 ± 0.034
13,RSVMTEEYKVPDGMVGFIIGRGGEQISRIQQESGCKIQIAPKSGGLPERSCMLTGTPESVQSAKRLLDQIVE,-0.026 ± 0.036
14,RSVMTEEYKVPDGMVGFIIGRGGEQISRIQQESGCKIQIAPMSGGLPERSCMLTGTPESVQSAKRLLDQIVE,-0.08 ± 0.035
15,RSVMTEEYKVPDGMVGFIIGRGGEQISRIQQESGCKIQIAPWSGGLPERSCMLTGTPESVQSAKRLLDQIVE,-0.089 ± 0.032
16,RSVMTEEYKVPDGMVGFIIGRGGEQISRIQQESGCKIQIAPISGGLPERSCMLTGTPESVQSAKRLLDQIVE,-0.085 ± 0.048
17,RSVMTEEYKVPDGMVGFIIGRGGEQISRIQQESGCKIQIAPSSGGLPERSCMLTGTPESVQSAKRLLDQIVE,-0.024 ± 0.029
18,RSVMTEEYKVPDGMVGFIIGRGGEQISRIQQESGCKIQIAPHSGGLPERSCMLTGTPESVQSAKRLLDQIVE,-0.04 ± 0.053
19,RSVMTEEYKVPDGMVGFIIGRGGEQISRIQQESGCKIQIAPQSGGLPERSCMLTGTPESVQSAKRLLDQIVE,-0.054 ± 0.038
